Values quoted from earlier work, collected in paper PMC8573040.

What was measured:
Im7 (Escherichia coli) = Im7 (Escherichia coli) (UniProt Q03708)
[1] = biological target: MBP (unfolded) (Escherichia coli) [MBP: P0AEX9]
[2] = biological target: PhoA (unfolded) (Escherichia coli) [phosphatase: P00634]

Chain of UniProt Q03708 (Q03708 whole entry): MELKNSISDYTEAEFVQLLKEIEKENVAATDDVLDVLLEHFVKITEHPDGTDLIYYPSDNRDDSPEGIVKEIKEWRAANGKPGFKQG

| Substance | Kd (Im7 (Escherichia coli)) [nM] | Kd [1] [nM] | Kd [2] [nM] |
| --- | --- | --- | --- |
| Spy (from UniProt P77754) | 2000 |  |  |
| SecB (from UniProt P0AG86) |  | 50 | 500 |
